Measurements: patent publication US20090214558A1 (Pfizer, published 2009)

T1: MAdCAM (analyte of the BIAcore experiment) (UniProt Q13477 19-317)
T1 construct: The antibodies are called anti-hMAdCAM; also called Mucosal addressin cell adhesion molecule
T1 sequence (looked up): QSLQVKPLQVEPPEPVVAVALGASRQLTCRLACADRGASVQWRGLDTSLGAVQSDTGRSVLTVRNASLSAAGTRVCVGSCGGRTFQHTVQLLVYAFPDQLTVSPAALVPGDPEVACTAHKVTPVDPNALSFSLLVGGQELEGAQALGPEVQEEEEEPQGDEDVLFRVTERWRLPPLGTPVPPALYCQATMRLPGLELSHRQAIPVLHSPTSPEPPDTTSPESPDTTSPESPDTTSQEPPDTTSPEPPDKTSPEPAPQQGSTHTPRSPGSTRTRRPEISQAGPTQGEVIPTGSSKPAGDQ


Key:
[1] = biological target: T2, MAdCAM-IgG1 Fc fusion protein; assay: MAdCAM-IgG1 Fc fusion: JY cell binding assay (inhibition of JY cell adhesion)
T2 construct: Made in CHO-DHFR cells and coated on plates at 4.5 µg/mL

[2] = biological target: T2, MAdCAM-IgG1 Fc fusion protein; assay: inhibition of adhesion of calcein-loaded JY cells to plate-coated MAdCAM-IgG1 Fc fusion (fluorescence)
Protocol: The cells were washed twice with RPMI 1640 media (Gibco) containing 2 mM L-glutamine (Gibco) by centrifugation (240 g), resuspending the final cell pellet at 2×10⁶ cells/mL in RPMI 1640 for Calcein AM loading. Calcein AM (Molecular Probes #C-3099) was added to the cells as a 1:200 dilution in DMSO (ca. final concentration 5 μM) and the cells protected from light during the course of the incubation (37° C. for 30 min). During this cell incubation step the antibodies to be tested, were diluted as follows: for single dose testing, the antibodies were made up to 3 μg/mL (1 μg/mL final) in 0.1 mg/mL BSA (Sigma#A3059) in PBS; for full IC₅₀ curves, the antibodies were diluted in 0.1 mg/mL BSA/PBS, with 3 μg/mL (1 μg/mL final) being the top concentration, then doubling dilutions (1:2 ratio) across the plate. The final well of the row was used for determining total binding, so 0.1 mg/ml BSA in PBS was used.
After blocking, the plate contents were flicked out and 50 μL of antibodies/controls were added to each well and the plate incubated at 37° C. for 20 min. During this time, Calcein-loaded JY cells were washed once with RPMI 1640 media containing 10% fetal bovine serum and once with 1 mg/mL BSA/PBS by centrifugation, resuspending the final cell pellet to 1×10⁶/mL in 1 mg/mL BSA/PBS. 100 μL of cells were added to each well of the U bottomed plate, the plate sealed, briefly centrifuged (1000 rpm for 2 min) and the plate then incubated at 37° C. for 45 min. At the end of this time, the plates were washed with a Skatron plate washer and fluorescence measured using a Wallac Victor² 1420 Multilabel Reader (excitation λ485 nm, emission λ535 nm count from top, 8 mm from bottom of plate, for 0.1 sec with normal emission aperture). For each antibody concentration, percent adhesion was expressed as a percentage of maximal fluorescence response in the absence of any antibody minus fluorescence associated with non-specific binding. The IC₅₀ value is defined as the anti-MAdCAM antibody concentration at which the adhesion response is decreased to 50% of the response in the absence of anti-MAdCAM antibody. Antibodies that were able to inhibit the binding of JY cells to MAdCAM-IgG₁ Fc fusion with an IC₅₀ value <0.1 μg/mL, were considered to have potent antagonist activity and were progressed to the MAdCAM-CHO adhesion assay.
Target sequence in this assay (chain, as listed by the source limits assumed): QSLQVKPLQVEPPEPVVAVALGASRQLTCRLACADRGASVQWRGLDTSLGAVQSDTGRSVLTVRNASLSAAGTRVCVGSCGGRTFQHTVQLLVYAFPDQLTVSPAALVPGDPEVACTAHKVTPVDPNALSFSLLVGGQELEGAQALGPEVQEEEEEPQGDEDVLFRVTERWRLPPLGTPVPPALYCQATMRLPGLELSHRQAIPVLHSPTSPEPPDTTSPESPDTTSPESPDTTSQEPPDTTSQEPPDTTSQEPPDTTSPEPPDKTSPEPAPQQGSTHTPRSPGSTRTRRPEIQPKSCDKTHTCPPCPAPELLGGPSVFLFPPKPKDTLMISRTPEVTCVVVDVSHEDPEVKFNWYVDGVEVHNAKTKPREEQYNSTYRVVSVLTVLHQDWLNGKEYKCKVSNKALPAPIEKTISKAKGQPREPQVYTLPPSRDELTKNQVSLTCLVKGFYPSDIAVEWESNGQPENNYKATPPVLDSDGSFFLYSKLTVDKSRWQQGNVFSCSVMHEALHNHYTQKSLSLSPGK

[3] = biological target: T1, MAdCAM (analyte of the BIAcore …); assay: BIAcore (SPR); antibody immobilised, MAdCAM injected
[4] = biological target: T1, MAdCAM (analyte of the BIAcore …); assay: BIAcore (SPR); antibody immobilised, MAdCAM injected; footnote: below the instrument's lower limit of 5 × 10^-6 s^-1
[5] = biological target: T1, MAdCAM (analyte of the BIAcore …); assay: BIAcore (SPR); KD restated from the instrument's off-rate limit; the footnote says 7.16.6_V, but the ka used and the asterisk belong to 7.16.6_S; KD bound restated from the BIAcore off-rate limit (5 × 10^-6 s^-1), not the fitted 23.2 pM

| Binder | IC50 [1] [µg/mL] | IC50 [2] [µg/mL] | Kd [3] [nM] | koff [3] [s⁻¹] | kon [3] [M⁻¹ s⁻¹] | also measured |
| --- | --- | --- | --- | --- | --- | --- |
| 6.34.2 (antibody, V domains shown) VH: QVQLVESGGGVVQPGRSLRLSCAASGFTFSSYGMHWVRQAPGKGLEWVAVISNDGNNKYYADSVKGRFTISRDNSKNTLYLQMNSLSAEDTAVYYCARDSTAITYYYYGMDVWGQGTTVTVSS VL: DIQMTQSPSSLSASVGDRVTITCRASQNISSYLNWFQQKPGKAPKLLIYAASGLKRGVPSRFSGSGSGTDFTLTIRTLQPDDFATYSCHQSYSLPFTFGPGTKVDIKR | 0.013 | – | – | – | – | – |
| 6.34.2-mod_SSQ (antibody, human IgG2, kappa, V domains shown, Purified recombinant antibody) VH: QVQLVESGGGVVQPGRSLRLSCAASGFTFSSYGMHWVRQAPGKGLEWVAVISNDGNNKYYADSVKGRFTISRDNSKNTLYLQMNSLRAEDTAVYYCARDSTAITYYYYGMDVWGQGTTVTVSS VL: DIQMTQSPSSLSASVGDRVTITCRASQSISSYLNWYQQKPGKAPKLLIYAASSLSQGVPSRFSGSGSGTDFTLTISSLQPEDFATYYCHQSYSLPFTFGPGTKVDIKR | 0.086 | – | – | – | – | – |
| 7.16.6_L (antibody, V domains shown, The light chain is the parent 7.16.6 kappa chain, rebuilt as for m1; also called 7.16.6_L variant) VH: QVQLVQSGAEVKKPGASVKVSCKASGYTFTSYGINWVRQAPGQGLEWMGWISVYSGNTNYAQKLQGRVTMTADTSTSTAYMDLRSLRSDDTAVYYCAREGSSSSGDYYYGMDVWGQGTTVTVSS VL: DIVMTQTPLSLSVTPGQPASISCKSSQSLLHTDGTTYLYWYLQKPGQPPQLLIYEVSNRFSGVPDRFSGSGSGTDFTLKISRVEAEDVGIYYCMQNIQLPWTFGQGTKVEIKR | – | 0.0356 | 0.0795 | 1.21e-05 | 152000 | – |
| 7.16.6_S (antibody, human IgG2, kappa, V domains shown, Recombinant, from transiently transfected FreeStyle HEK293 cells; also called 7.16.6-5; 7.16.6_5) VH: QVQLVQSGAEVKKPGASVKVSCKASGYTFTSYGINWVRQAPGQGLEWMGWISVYSGNTNYAQKVQGRVTMTADTSTSTAYMDLRSLRSDDTAVYYCAREGSSSSGDYYYGMDVWGQGTTVTVSS VL: DIVMTQTPLSLSVTPGQPASISCKSSQSLLHTDGTTYLYWYLQKPGQPPQLLIYEVSNRFSGVPDRFSGSGSGTDFTLKISRVEAEDVGIYYCMQSIQLPWTFGQGTKVEIKR | – | 0.0342 | 0.0232 | – | 183000 | koff [4]: 4.27e-06 s⁻¹; Kd [5]: < 0.0273 nM |
| 7.16.6_VS (antibody, human IgG2, kappa, V domains shown, Recombinant, from transiently transfected FreeStyle HEK293 cells; also called 7.16.6_VS adduct) VH: QVQLVQSGAEVKKPGASVKVSCKASGYTFTSYGINWVRQAPGQGLEWMGWISVYSGNTNYAQKVQGRVTMTADTSTSTAYMDLRSLRSDDTAVYYCAREGSSSSGDYYYGMDVWGQGTTVTVSS VL: DIVMTQTPLSLSVTPGQPASISCKSSQSLLHTDGTTYLYWYLQKPGQPPQLLIYEVSNRFSGVPDRFSGSGSGTDFTLKISRVEAEDVGVYYCMQSIQLPWTFGQGTKVEIKR | – | 0.0582 | 0.0908 | 2.18e-05 | 240000 | – |
| 7.16.6_V (antibody, human IgG2, kappa, V domains shown, Recombinant, from transiently transfected FreeStyle HEK293 cells; also called 7.16.6_V adduct) VH: QVQLVQSGAEVKKPGASVKVSCKASGYTFTSYGINWVRQAPGQGLEWMGWISVYSGNTNYAQKVQGRVTMTADTSTSTAYMDLRSLRSDDTAVYYCAREGSSSSGDYYYGMDVWGQGTTVTVSS VL: DIVMTQTPLSLSVTPGQPASISCKSSQSLLHTDGTTYLYWYLQKPGQPPQLLIYEVSNRFSGVPDRFSGSGSGTDFTLKISRVEAEDVGVYYCMQNIQLPWTFGQGTKVEIKR | – | 0.0412 | 0.162 | 2.49e-05 | 153000 | – |
| 7.16.6_LVS (antibody, human IgG2, kappa, V domains shown, Recombinant, from transiently transfected FreeStyle HEK293 cells) VH: QVQLVQSGAEVKKPGASVKVSCKASGYTFTSYGINWVRQAPGQGLEWMGWISVYSGNTNYAQKLQGRVTMTADTSTSTAYMDLRSLRSDDTAVYYCAREGSSSSGDYYYGMDVWGQGTTVTVSS VL: DIVMTQTPLSLSVTPGQPASISCKSSQSLLHTDGTTYLYWYLQKPGQPPQLLIYEVSNRFSGVPDRFSGSGSGTDFTLKISRVEAEDVGVYYCMQSIQLPWTFGQGTKVEIKR | – | 0.0458 | 0.119 | 2.31e-05 | 194000 | – |
| 6.22.2 (antibody, V domains shown) VH: QVQLVESGGGVVQPGRSLRLSCAASGHTFSSDGMHWVRQAPGKGLEWVAIIWYDGSNKYYADSVKGRFTISRDNSKNTLYLQMNSLRAEDTAVYYCARDPGYYYGMDVWGQGTTVTVSS VL: EIVLTQSPDFQSVTPKEKVTITCRASQRIGSSLHWYQQKPDQSPKLLIKYASQSFSGVPSRFSGSGSGTNFTLTINGLEAEDAATYYCHQSGRLPLTFGGGTKVEIKR | 0.018 | – | – | – | – | – |
| 6.22.2-mod_V (antibody, human IgG2, kappa, V domains shown, Purified recombinant antibody) VH: QVQLVESGGGVVQPGRSLRLSCAASGFTFSSDGMHWVRQAPGKGLEWVAVIWYDGSNKYYADSVKGRFTISRDNSKNTLYLQMNSLRAEDTAVYYCARDPGYYYGMDVWGQGTTVTVSS VL: EIVLTQSPDFQSVTPKEKVTITCRASQRIGSSLHWYQQKPDQSPKLLIKYASQSFSGVPSRFSGSGSGTDFTLTINSLEAEDAATYYCHQSGRLPLTFGGGTKVEIKR | 0.076 | – | – | – | – | – |
| 9.8.2-mod_ΔRGAYH,D (antibody, human IgG4, kappa, V domains shown, Purified recombinant antibody; The heavy-chain constant region as printed is IgG4-like; also called 9.8.2_ΔRGAYH,D) VH: QVQLVESGGGVVQPGRSLRLSCAASGFTFSSYGMHWVRQAPGKGLEWVAVIWYDGSNEYYADSVKGRFTISRDNSKNTLYLQMNSLRAEDTAVYYCAFDYWGQGTLVTVSS VL: DIQMTQSPSSLSASVGDRVTITCQASQDISNYLNWYQQKPGKAPKLLIYDASNLETGVPSRFSGSGSGTDFTFTISSLQPEDIATYSCQHSDNLITFGQGTRLEIKR | 0.072 | – | – | – | – | – |
| 6.67.1 (antibody, V domains shown) VH: QVQLQESGPGLVKPSETLSLTCTVSGDSISSNYWSWIRQPAGKGLEWIGRIYTSGGTNSNPSLRGRVTILADTSKNQFSLKLSSVTAADTAVYYCARDRITIIRGLIPSFFDYWGQGTLVTVSS VL: not shown | 0.013 | – | – | – | – | – |
| 6.67.1-mod_Y (antibody, V domains shown) VH: QVQLQESGPGLVKPSETLSLTCTVSGDSISSNYWSWIRQPAGKGLEWIGRIYTSGGTNSNPSLRGRVTMSVDTSKNQFSLKLSSVTAADTAVYYCARDRITIIRGLIPSFFDYWGQGTLVTVSS VL: not shown | 0.063 | – | – | – | – | – |
| 6.77.1-mod_ΔS (antibody, human IgG2, kappa, V domains shown, Purified recombinant antibody; also called 6.77.1-mod_ΔAS) VH: EVQLVESGGGLVKPGGSLRLSCAASGFTFSSYSMNWVRQAPGKGLEWVSSISSSSSYIYYADSVKGRFTISRDNAKNSLYLQMNSLRAEDTAVYYCARDGYSSGWYYYYYGMDVWGQGTTVTVSS VL: DIVMTQTPLSLSVTPGQPASISCKSSQSLLLSDGKTYLNWYLQKPGQPPQLLIYEVSNRFSGVPDRFSGSGSGTDFTLKISRVEAEDVGVYSCMQSIQLMSSFGQGTKLEIKR | 0.0485 | – | – | – | – | – |
